125 sequences from the supplement of paper PMC9112550, “Optimization of the antimicrobial peptide Bac7 by deep mutational scanning” (BMC Biology, 2022) can be followed below.

This series relates to Escherichia coli TOP10. Briefly: shrunken log2 fold change of peptide-encoding DNA abundance (4.5 h post-induction vs induction); higher = less antimicrobial activity (less host growth inhibition). The note with it: time post-induction: 4.5 h; library: site-saturation at positions 5, 18, 19, 20.
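Further: peptides expressed intracellularly from a pBAD plasmid library in pooled LB shake-flask culture, induced with 0.3% L-arabinose, DNA abundance read by NGS, three biological replicates, DESeq2 with apeglm shrinkage.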

Take RRIRWRPPRLPRPRPRPSKGPRP: the “shrunken log2 fold change” value came out at 0.0944.

For RRIRRRPPRLPRPRPRPYDFPRP, the “shrunken log2 fold change” value is -0.296.

Take RRIRARPPRLPRPRPRPPSLPRP: the “shrunken log2 fold change” value was found to be 0.513.

As for RRIRPRPPRLPRPRPRPWTPPRP, the “shrunken log2 fold change” value was 0.0256.

For RRIRNRPPRLPRPRPRPRNGPRP, the “shrunken log2 fold change” value was -0.0619.

Regarding RRIRSRPPRLPRPRPRPREIPRP, the “shrunken log2 fold change” value was determined as 0.426.

For the sequence RRIRKRPPRLPRPRPRPEYYPRP, the “shrunken log2 fold change” value is -0.053.

RRIRDRPPRLPRPRPRPYSFPRP: the “shrunken log2 fold change” value was -0.0868.

Regarding RRIRFRPPRLPRPRPRPDKKPRP, the “shrunken log2 fold change” value is -0.0461.

Turning to RRIRVRPPRLPRPRPRPYCYPRP, the “shrunken log2 fold change” value is -0.745.

Turning to RRIRHRPPRLPRPRPRPMNEPRP, the “shrunken log2 fold change” value was -0.275.

In the case of RRIRGRPPRLPRPRPRPLHPPRP, the “shrunken log2 fold change” value amounted to 0.697.

For RRIRNRPPRLPRPRPRPKENPRP, the “shrunken log2 fold change” value is -0.409.

Take RRIRWRPPRLPRPRPRPLSPPRP: the “shrunken log2 fold change” value is -0.097.

In the case of RRIRYRPPRLPRPRPRPYGSPRP, the “shrunken log2 fold change” value is -0.843.

Take RRIRWRPPRLPRPRPRPADWPRP: the “shrunken log2 fold change” value amounted to 0.345.

Consider RRIRHRPPRLPRPRPRPFLEPRP, for which the “shrunken log2 fold change” value was -0.0353.

Regarding RRIRPRPPRLPRPRPRPDDSPRP, the “shrunken log2 fold change” value worked out at 0.0427.

For RRIRKRPPRLPRPRPRPIVKPRP, the “shrunken log2 fold change” value is -0.158.

Turning to RRIRCRPPRLPRPRPRPQSKPRP, the “shrunken log2 fold change” value was -0.448.

In the case of RRIRWRPPRLPRPRPRPYYRPRP, the “shrunken log2 fold change” value was -0.0707.

Turning to RRIRCRPPRLPRPRPRPAFGPRP, the “shrunken log2 fold change” value amounted to 0.194.

As to RRIRRRPPRLPRPRPRPQTIPRP, the “shrunken log2 fold change” value amounted to 0.272.

With RRIRNRPPRLPRPRPRPIKHPRP, the “shrunken log2 fold change” value is -0.724.

As to RRIRFRPPRLPRPRPRPNIMPRP, the “shrunken log2 fold change” value is -0.658.

For RRIRSRPPRLPRPRPRPCAFPRP, the “shrunken log2 fold change” value was -0.236.

Turning to RRIRKRPPRLPRPRPRPDGHPRP, the “shrunken log2 fold change” value is -0.0242.

For the sequence RRIRLRPPRLPRPRPRPYGNPRP, the “shrunken log2 fold change” value came out at 0.0303.

For the sequence RRIRWRPPRLPRPRPRPFMMPRP, the “shrunken log2 fold change” value was -0.587.

Take RRIRQRPPRLPRPRPRPGPTPRP: the “shrunken log2 fold change” value is 0.0273.

Regarding RRIRRRPPRLPRPRPRPDNHPRP, the “shrunken log2 fold change” value is -0.215.

As for RRIRTRPPRLPRPRPRPFFDPRP, the “shrunken log2 fold change” value is -0.429.

Regarding RRIRARPPRLPRPRPRPPIWPRP, the “shrunken log2 fold change” value worked out at 0.507.

For RRIRFRPPRLPRPRPRPMMYPRP, the “shrunken log2 fold change” value was -0.104.

Turning to RRIRNRPPRLPRPRPRPSWDPRP, the “shrunken log2 fold change” value came out at 0.039.

As to RRIRLRPPRLPRPRPRPIQHPRP, the “shrunken log2 fold change” value was -0.213.

RRIRARPPRLPRPRPRPSEHPRP: the “shrunken log2 fold change” value is -0.301.

With RRIRRRPPRLPRPRPRPKRTPRP, the “shrunken log2 fold change” value was 0.759.

For RRIRYRPPRLPRPRPRPITWPRP, the “shrunken log2 fold change” value was -0.353.

For the sequence RRIRPRPPRLPRPRPRPDYKPRP, the “shrunken log2 fold change” value was -0.66.

In the case of RRIRYRPPRLPRPRPRPGNSPRP, the “shrunken log2 fold change” value was -0.0689.

As for RRIRMRPPRLPRPRPRPNIGPRP, the “shrunken log2 fold change” value is -0.0302.

For RRIRERPPRLPRPRPRPLIPPRP, the “shrunken log2 fold change” value is -0.463.

Regarding RRIRARPPRLPRPRPRPNFEPRP, the “shrunken log2 fold change” value is 0.356.

Regarding RRIRQRPPRLPRPRPRPRFQPRP, the “shrunken log2 fold change” value turned out to be 0.202.

Turning to RRIRCRPPRLPRPRPRPPNAPRP, the “shrunken log2 fold change” value is 0.262.

Regarding RRIRYRPPRLPRPRPRPWCLPRP, the “shrunken log2 fold change” value is -0.634.

For RRIRGRPPRLPRPRPRPESLPRP, the “shrunken log2 fold change” value amounted to 0.595.

Turning to RRIRVRPPRLPRPRPRPSIGPRP, the “shrunken log2 fold change” value is -0.197.

Regarding RRIRSRPPRLPRPRPRPERPPRP, the “shrunken log2 fold change” value is 0.384.

Turning to RRIRHRPPRLPRPRPRPIRHPRP, the “shrunken log2 fold change” value was -0.0447.

Take RRIRARPPRLPRPRPRPALNPRP: the “shrunken log2 fold change” value worked out at 0.431.

RRIRVRPPRLPRPRPRPGETPRP: the “shrunken log2 fold change” value was -0.238.

For the sequence RRIRCRPPRLPRPRPRPDQVPRP, the “shrunken log2 fold change” value is -0.183.

In the case of RRIRCRPPRLPRPRPRPPELPRP, the “shrunken log2 fold change” value was determined as 0.643.

As for RRIRQRPPRLPRPRPRPFFSPRP, the “shrunken log2 fold change” value was -0.313.

On to RRIRYRPPRLPRPRPRPRNCPRP, for which the “shrunken log2 fold change” value was -0.234.

As for RRIRCRPPRLPRPRPRPQNLPRP, the “shrunken log2 fold change” value is -0.49.

Consider RRIRYRPPRLPRPRPRPARQPRP, for which the “shrunken log2 fold change” value was found to be 0.279.

As for RRIRIRPPRLPRPRPRPDKYPRP, the “shrunken log2 fold change” value is -0.189.

As for RRIRNRPPRLPRPRPRPSIMPRP, the “shrunken log2 fold change” value is -0.611.

As for RRIRYRPPRLPRPRPRPTNGPRP, the “shrunken log2 fold change” value was -0.126.

Regarding RRIRIRPPRLPRPRPRPWGSPRP, the “shrunken log2 fold change” value is -0.488.

Turning to RRIRTRPPRLPRPRPRPEISPRP, the “shrunken log2 fold change” value is 0.00497.

RRIRNRPPRLPRPRPRPVNNPRP: the “shrunken log2 fold change” value is -0.647.

RRIRYRPPRLPRPRPRPSNIPRP: the “shrunken log2 fold change” value is -1.25.

Regarding RRIRIRPPRLPRPRPRPTMEPRP, the “shrunken log2 fold change” value is -0.523.

Consider RRIRDRPPRLPRPRPRPGEVPRP, for which the “shrunken log2 fold change” value was 0.247.

With RRIRHRPPRLPRPRPRPTMIPRP, the “shrunken log2 fold change” value is -0.112.

On to RRIRPRPPRLPRPRPRPQDQPRP, for which the “shrunken log2 fold change” value was -0.126.

Turning to RRIRDRPPRLPRPRPRPPLNPRP, the “shrunken log2 fold change” value turned out to be 0.0565.

Take RRIRWRPPRLPRPRPRPPMYPRP: the “shrunken log2 fold change” value was -0.216.

Take RRIRKRPPRLPRPRPRPEGLPRP: the “shrunken log2 fold change” value amounted to 1.05.

With RRIRTRPPRLPRPRPRPNCGPRP, the “shrunken log2 fold change” value turned out to be 0.0396.

For RRIRVRPPRLPRPRPRPNNFPRP, the “shrunken log2 fold change” value was 1.9.

Consider RRIRERPPRLPRPRPRPGKCPRP, for which the “shrunken log2 fold change” value is -0.205.

On to RRIRTRPPRLPRPRPRPKVPPRP, for which the “shrunken log2 fold change” value was -0.0154.

Turning to RRIRSRPPRLPRPRPRPDEWPRP, the “shrunken log2 fold change” value was -0.00195.

For RRIRMRPPRLPRPRPRPEACPRP, the “shrunken log2 fold change” value came out at 3.9.

As for RRIRIRPPRLPRPRPRPMPFPRP, the “shrunken log2 fold change” value came to 0.0123.

For the sequence RRIRRRPPRLPRPRPRPSKWPRP, the “shrunken log2 fold change” value is -0.149.

Consider RRIRYRPPRLPRPRPRPEMQPRP, for which the “shrunken log2 fold change” value was determined as 0.057.

RRIRPRPPRLPRPRPRPWYIPRP: the “shrunken log2 fold change” value was -0.472.

RRIRKRPPRLPRPRPRPHDYPRP: the “shrunken log2 fold change” value came to 0.0206.

With RRIRCRPPRLPRPRPRPWIYPRP, the “shrunken log2 fold change” value was -0.821.

RRIRVRPPRLPRPRPRPTMGPRP: the “shrunken log2 fold change” value came out at 0.04.

Consider RRIRWRPPRLPRPRPRPVKLPRP, for which the “shrunken log2 fold change” value was -0.0719.

Take RRIRNRPPRLPRPRPRPCMSPRP: the “shrunken log2 fold change” value was -0.108.

As to RRIRGRPPRLPRPRPRPYMRPRP, the “shrunken log2 fold change” value turned out to be 0.0456.

Turning to RRIRHRPPRLPRPRPRPRLHPRP, the “shrunken log2 fold change” value was 0.0986.

As for RRIRCRPPRLPRPRPRPSPLPRP, the “shrunken log2 fold change” value worked out at 0.21.

With RRIRTRPPRLPRPRPRPLSTPRP, the “shrunken log2 fold change” value is -0.386.

For RRIRHRPPRLPRPRPRPDMQPRP, the “shrunken log2 fold change” value is -0.106.

As for RRIRMRPPRLPRPRPRPDTMPRP, the “shrunken log2 fold change” value was 0.28.

RRIRHRPPRLPRPRPRPVGVPRP: the “shrunken log2 fold change” value is -0.00247.

RRIRPRPPRLPRPRPRPNQYPRP: the “shrunken log2 fold change” value was -0.509.

For the sequence RRIRGRPPRLPRPRPRPKHCPRP, the “shrunken log2 fold change” value amounted to 0.216.

In the case of RRIRARPPRLPRPRPRPHWMPRP, the “shrunken log2 fold change” value is 0.0379.

With RRIRIRPPRLPRPRPRPEYSPRP, the “shrunken log2 fold change” value was -0.119.

Consider RRIRKRPPRLPRPRPRPDAHPRP, for which the “shrunken log2 fold change” value was determined as 0.534.

For the sequence RRIRERPPRLPRPRPRPEWPPRP, the “shrunken log2 fold change” value stood at 0.102.

For RRIRDRPPRLPRPRPRPWDFPRP, the “shrunken log2 fold change” value came out at 0.238.

For RRIRPRPPRLPRPRPRPINVPRP, the “shrunken log2 fold change” value is -0.366.

As to RRIRDRPPRLPRPRPRPWIDPRP, the “shrunken log2 fold change” value was determined as 0.151.

Regarding RRIRIRPPRLPRPRPRPNLMPRP, the “shrunken log2 fold change” value was -0.377.

As to RRIRGRPPRLPRPRPRPGVNPRP, the “shrunken log2 fold change” value was found to be 0.075.

Regarding RRIRTRPPRLPRPRPRPSKKPRP, the “shrunken log2 fold change” value is -0.174.

RRIRDRPPRLPRPRPRPMCWPRP: the “shrunken log2 fold change” value came to 0.564.

Turning to RRIRPRPPRLPRPRPRPCQHPRP, the “shrunken log2 fold change” value is -0.161.

Regarding RRIRTRPPRLPRPRPRPNKWPRP, the “shrunken log2 fold change” value amounted to 0.0213.

Consider RRIRLRPPRLPRPRPRPPPFPRP, for which the “shrunken log2 fold change” value came out at 0.791.

Consider RRIRCRPPRLPRPRPRPKCVPRP, for which the “shrunken log2 fold change” value is -0.0957.

As for RRIRCRPPRLPRPRPRPADWPRP, the “shrunken log2 fold change” value was determined as 0.29.

RRIRMRPPRLPRPRPRPNIDPRP: the “shrunken log2 fold change” value was -0.764.

Consider RRIRHRPPRLPRPRPRPFMGPRP, for which the “shrunken log2 fold change” value is -0.103.

RRIRQRPPRLPRPRPRPISSPRP: the “shrunken log2 fold change” value is 0.00776.

On to RRIRRRPPRLPRPRPRPAILPRP, for which the “shrunken log2 fold change” value was -0.017.

Take RRIRCRPPRLPRPRPRPGDFPRP: the “shrunken log2 fold change” value was -0.0027.

Turning to RRIRERPPRLPRPRPRPESQPRP, the “shrunken log2 fold change” value was -0.101.

On to RRIRSRPPRLPRPRPRPMVQPRP, for which the “shrunken log2 fold change” value was 0.13.

Turning to RRIRTRPPRLPRPRPRPMWDPRP, the “shrunken log2 fold change” value came out at 0.00971.

Take RRIRKRPPRLPRPRPRPSAEPRP: the “shrunken log2 fold change” value came out at 0.787.

In the case of RRIRLRPPRLPRPRPRPFDNPRP, the “shrunken log2 fold change” value is -0.0289.

As to RRIRGRPPRLPRPRPRPCDYPRP, the “shrunken log2 fold change” value worked out at 0.132.

Consider RRIRSRPPRLPRPRPRPMLNPRP, for which the “shrunken log2 fold change” value was -0.198.
